Values quoted from earlier work as cited in paper PMC4540119.
Read-outs that look alike come from different tables or passages of the source.

Experiments:
[1] = target: integrin α6β1 (Homo sapiens) (UniProt P23229)
[2] = target: integrin α6β1 (Homo sapiens) (UniProt P23229); remark: listed apart in the source

Chain of UniProt P23229 (P23229 24-1050, chain 1 of 2): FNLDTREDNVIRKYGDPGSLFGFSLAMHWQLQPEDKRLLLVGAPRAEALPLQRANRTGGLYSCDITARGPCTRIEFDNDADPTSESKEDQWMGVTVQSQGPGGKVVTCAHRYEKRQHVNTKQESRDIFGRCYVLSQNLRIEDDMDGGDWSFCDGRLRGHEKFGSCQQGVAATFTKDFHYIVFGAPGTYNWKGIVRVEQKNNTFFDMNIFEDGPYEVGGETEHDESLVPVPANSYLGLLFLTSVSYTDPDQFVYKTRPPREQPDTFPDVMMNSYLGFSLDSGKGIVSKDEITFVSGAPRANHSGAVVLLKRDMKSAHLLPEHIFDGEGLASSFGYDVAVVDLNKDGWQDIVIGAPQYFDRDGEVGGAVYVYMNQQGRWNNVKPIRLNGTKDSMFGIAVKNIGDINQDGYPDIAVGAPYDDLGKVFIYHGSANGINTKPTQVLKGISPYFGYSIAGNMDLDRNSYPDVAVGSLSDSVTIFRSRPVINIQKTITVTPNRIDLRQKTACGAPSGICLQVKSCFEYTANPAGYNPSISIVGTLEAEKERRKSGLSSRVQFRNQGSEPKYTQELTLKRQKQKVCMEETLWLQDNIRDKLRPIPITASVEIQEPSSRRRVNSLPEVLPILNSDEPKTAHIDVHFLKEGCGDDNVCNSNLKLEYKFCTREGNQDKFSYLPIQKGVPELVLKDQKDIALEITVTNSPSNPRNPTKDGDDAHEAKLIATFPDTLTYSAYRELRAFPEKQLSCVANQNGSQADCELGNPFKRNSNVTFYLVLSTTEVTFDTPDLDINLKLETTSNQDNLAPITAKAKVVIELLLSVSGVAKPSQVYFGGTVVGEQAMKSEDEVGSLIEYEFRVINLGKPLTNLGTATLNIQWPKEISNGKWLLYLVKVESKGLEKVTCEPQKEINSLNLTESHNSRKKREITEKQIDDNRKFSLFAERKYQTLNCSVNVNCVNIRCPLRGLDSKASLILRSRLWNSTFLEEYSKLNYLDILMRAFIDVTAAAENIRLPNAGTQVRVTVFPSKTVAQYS
Chain of UniProt P23229 (P05556 21-728, chain 2 of 2, further chain): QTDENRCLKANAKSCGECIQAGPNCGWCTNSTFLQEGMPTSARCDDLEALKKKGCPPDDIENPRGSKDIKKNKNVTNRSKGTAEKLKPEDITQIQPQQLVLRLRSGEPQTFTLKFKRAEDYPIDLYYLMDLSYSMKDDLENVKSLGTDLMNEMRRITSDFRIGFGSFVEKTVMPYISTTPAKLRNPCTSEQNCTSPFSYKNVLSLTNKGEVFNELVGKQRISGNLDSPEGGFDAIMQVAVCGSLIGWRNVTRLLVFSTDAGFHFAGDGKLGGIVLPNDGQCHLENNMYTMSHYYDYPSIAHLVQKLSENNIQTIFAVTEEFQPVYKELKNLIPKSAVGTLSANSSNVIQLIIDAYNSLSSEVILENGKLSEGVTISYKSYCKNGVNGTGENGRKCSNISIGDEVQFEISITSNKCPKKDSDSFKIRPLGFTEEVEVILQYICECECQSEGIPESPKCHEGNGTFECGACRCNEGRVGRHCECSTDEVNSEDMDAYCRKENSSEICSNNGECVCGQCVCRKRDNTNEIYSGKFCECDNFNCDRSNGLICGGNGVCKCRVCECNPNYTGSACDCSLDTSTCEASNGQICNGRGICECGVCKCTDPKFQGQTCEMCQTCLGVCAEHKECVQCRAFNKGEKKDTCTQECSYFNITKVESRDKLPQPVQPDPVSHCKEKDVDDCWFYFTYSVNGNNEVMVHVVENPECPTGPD

| Kd [1] | Kd [2] | Substance |
| --- | --- | --- |
| 9.5 nM | – | laminin-111 (from UniProt P25391) |
| – | 0.72 nM | laminin-521 (from UniProt O15230) |
